Laboratory results taken from PMC9177699, “Dynamic interplay between the periplasmic chaperone SurA and the BAM complex in outer membrane protein folding” (Communications Biology, 2022).

T1: SurA-WT (E. coli, UniProt P0ABZ6 21-428)
T1 construct: gene numbering including the signal peptide; also called wild-type SurA; source: E. coli BL21(DE3), purified (HisTrap with on-column 6 M Gdn-HCl wash, TEV cleavage, second HisTrap); not shown: His6, N-terminal, cleaved
T1 sequence: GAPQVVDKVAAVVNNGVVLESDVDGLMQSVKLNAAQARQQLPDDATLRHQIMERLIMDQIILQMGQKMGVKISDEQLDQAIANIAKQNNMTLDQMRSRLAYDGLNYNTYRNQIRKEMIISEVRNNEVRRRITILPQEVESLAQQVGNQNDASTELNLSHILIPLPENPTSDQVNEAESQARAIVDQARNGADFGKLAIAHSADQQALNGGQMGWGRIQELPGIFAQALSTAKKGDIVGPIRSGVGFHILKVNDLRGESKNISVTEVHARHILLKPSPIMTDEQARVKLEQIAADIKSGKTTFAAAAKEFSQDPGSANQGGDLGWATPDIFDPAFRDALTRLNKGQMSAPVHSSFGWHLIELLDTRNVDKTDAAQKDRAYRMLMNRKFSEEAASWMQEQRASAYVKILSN

T2: SurA-∆P1 (E. coli, UniProt P0ABZ6 21-428, removing residues 172–280)
T2 construct: gene numbering including the signal peptide; source: E. coli BL21(DE3), purified (HisTrap with on-column 6 M Gdn-HCl wash, TEV cleavage, second HisTrap); not shown: His6, N-terminal, cleaved
T2 sequence: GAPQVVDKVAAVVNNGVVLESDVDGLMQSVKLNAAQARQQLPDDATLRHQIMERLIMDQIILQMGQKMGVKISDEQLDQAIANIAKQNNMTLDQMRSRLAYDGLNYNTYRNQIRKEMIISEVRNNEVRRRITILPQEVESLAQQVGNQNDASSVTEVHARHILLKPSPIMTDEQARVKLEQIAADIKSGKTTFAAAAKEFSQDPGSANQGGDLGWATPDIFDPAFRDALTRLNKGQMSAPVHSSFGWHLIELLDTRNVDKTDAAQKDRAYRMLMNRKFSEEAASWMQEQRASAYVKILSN

T3: SurA-∆P2 (E. coli, UniProt P0ABZ6 21-428, removing residues 281–389)
T3 construct: gene numbering including the signal peptide; source: E. coli BL21(DE3), purified (HisTrap with on-column 6 M Gdn-HCl wash, TEV cleavage, second HisTrap); not shown: His6, N-terminal, cleaved
T3 sequence: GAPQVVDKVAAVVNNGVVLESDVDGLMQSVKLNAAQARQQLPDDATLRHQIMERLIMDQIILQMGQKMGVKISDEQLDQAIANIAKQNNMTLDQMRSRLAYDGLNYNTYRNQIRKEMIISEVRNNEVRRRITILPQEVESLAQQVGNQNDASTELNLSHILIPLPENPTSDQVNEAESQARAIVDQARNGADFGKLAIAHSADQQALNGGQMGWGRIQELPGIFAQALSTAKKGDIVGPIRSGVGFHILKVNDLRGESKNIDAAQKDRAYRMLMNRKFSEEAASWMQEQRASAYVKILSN

T4: SurA-core (E. coli, UniProt P0ABZ6 21-428, removing residues 172–389)
T4 construct: gene numbering including the signal peptide; source: E. coli BL21(DE3), purified (HisTrap with on-column 6 M Gdn-HCl wash, TEV cleavage, second HisTrap); not shown: His6, N-terminal, cleaved
T4 sequence: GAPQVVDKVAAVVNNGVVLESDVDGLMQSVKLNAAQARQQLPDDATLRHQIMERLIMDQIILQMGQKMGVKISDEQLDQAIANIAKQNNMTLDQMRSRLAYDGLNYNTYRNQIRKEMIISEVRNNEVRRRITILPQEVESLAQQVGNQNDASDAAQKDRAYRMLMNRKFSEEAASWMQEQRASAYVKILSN


Legend:
[1] = target: β-barrel assembly machinery (BAM) complex, BamABCDE (E. coli, UniProt P0A940 21-810; P77774 20-392; P0A903 25-344; P0AC02 20-245; P0A937 20-113); experiment: cell-based or functional assay
[2] = target: T5, BamB (as a subunit of the purified BAM complex) (E. coli, UniProt P77774 20-392); experiment: HDX-MS; differential HDX; 8 µM BAM with 10 µM SurA-WT or SurA-core, or 8 µM SurA-WT with 10 µM BAM; 0.02% DDM, 10 mM potassium phosphate, pH 8.0; labelling at 4 °C for 0.5, 2, 30, 120 min; conditions: both partners purified
T5 construct: BamB, E. coli, accessory lipoprotein of BAM, expressed from pJH114; Stood in the assays within the whole BAM complex, not alone

SurA-WT = target: T1, SurA-WT; experiment: MST; 100 nM Alexa Fluor 488-labelled tOmpA, SurA or SurA domain deletion variant titrated 100 µM-3 nM, 0.8 M urea, 20 mM Tris-HCl, pH 8.0, 25 °C; Hill binding model; apparent Kd; conditions: both partners purified
SurA-∆P1 = target: T2, SurA-∆P1; experiment: as above; conditions: both partners purified
SurA-∆P2 = target: T3, SurA-∆P2; experiment: as above; conditions: both partners purified
SurA-core = target: T4, SurA-core; experiment: as above; conditions: both partners purified

rate of BAM-catalysed folding of tOmpA into proteoliposomes (cold SDS–PAGE), with SurA-core against SurA-WT [1] [fold]	binding result [2]	Kd (SurA-WT) [µM]	Kd (SurA-∆P1) [µM]	Kd (SurA-∆P2) [µM]	Kd (SurA-core) [µM]	Binder
~3	binds	–	–	–	–	SurA-core (SurA 21-428 without residues 172-389, His-tag cleaved) (domain or fragment, E. coli, UniProt P0ABZ6 21-428, looked up, numbers are the gene numbering (including the signal peptide); A G of the TEV site probably stays after cleavage (surmised); source: E. coli BL21(DE3), purified (HisTrap, on-column denaturation with 6 M Gdn-HCl, TEV cleavage, second HisTrap); not shown: His6, N-terminal, cleaved) APQVVDKVAAVVNNGVVLESDVDGLMQSVKLNAAQARQQLPDDATLRHQIMERLIMDQIILQMGQKMGVKISDEQLDQAIANIAKQNNMTLDQMRSRLAYDGLNYNTYRNQIRKEMIISEVRNNEVRRRITILPQEVESLAQQVGNQNDASDAAQKDRAYRMLMNRKFSEEAASWMQEQRASAYVKILSN
–	–	3.7	14.5	8.8	10.2	Alexa Fluor 488-labelled tOmpA (domain or fragment, Alexa Fluor 488 (C5 maleimide) on the added cysteine, N-terminal Met and the Cys residue added immediately following it; unfolded: kept in 8 M urea and diluted to 0.8 M urea for the assay; also called Cys-tOmpA) MCAPKDNTWYTGAKLGWSQYHDTGFINNNGPTHENQLGAGAFGGYQVNPYVGFEMGYDWLGRMPYKGSVENGAYKAQGVQLTAKLGYPITDDLDIYTRLGGMVWRADTKSNVYGKNHDTGVSPVFAGGVEYAITPEIATRLEYQWTNNIGDAHTIGTRPDNGMLSLGVSYRFG
